Reference: patent publication US20060281078, “Human fast-1 gene” (published 2006)

Key:
hFAST-1 (Homo sapiens) = biological target: T1, hFAST-1 (Homo sapiens) (UniProt O75593); assay: cell_activity; conditions: MvLu1 cells; TGF-beta dependent luciferase activation
T1 sequence: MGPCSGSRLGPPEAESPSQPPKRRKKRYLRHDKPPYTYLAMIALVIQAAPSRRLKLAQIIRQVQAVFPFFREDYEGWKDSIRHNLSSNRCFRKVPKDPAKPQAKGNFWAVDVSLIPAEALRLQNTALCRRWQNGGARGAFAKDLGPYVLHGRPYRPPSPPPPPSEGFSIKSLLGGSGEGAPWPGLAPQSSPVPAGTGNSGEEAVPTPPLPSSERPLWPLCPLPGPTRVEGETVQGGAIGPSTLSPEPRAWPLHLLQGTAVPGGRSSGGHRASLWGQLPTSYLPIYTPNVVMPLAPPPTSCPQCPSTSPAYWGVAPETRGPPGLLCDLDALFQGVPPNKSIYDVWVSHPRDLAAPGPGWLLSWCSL

Smad2 MH1 domain (S-N) = Smad2 MH1 domain (S-N) (Homo sapiens, UniProt Q15796 Q15796:1-182); assay: EMSA; specificity control; conditions: tags: GST fusion; label: 32P
Chain of Smad2 MH1 domain (S-N) (Q15796 1-182, one chain of several): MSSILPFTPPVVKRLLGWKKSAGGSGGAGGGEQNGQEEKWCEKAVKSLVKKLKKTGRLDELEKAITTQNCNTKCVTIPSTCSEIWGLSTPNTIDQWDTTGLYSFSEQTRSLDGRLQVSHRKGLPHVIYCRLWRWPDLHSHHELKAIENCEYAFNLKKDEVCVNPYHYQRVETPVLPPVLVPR
Procedure: (§1) Derivation of clones and EMSA were performed as described in Example 7. Mock selected clones were used for comparison (“C” lanes). The positions of free probe and hFAST-1 bound probe (“shift”) are indicated. FIG. 4B provides a sequence summary of clones that bound to hFAST-1. The sequences of the relevant segment of 17 hFAST-1-binding clones were determined and the fractions of clones containing the nucleotides at the indicated positions relative to the consensus are shown. […] Wild-type (FBE) or mutant (FBE*) oligonucleotides were incubated with 0.5-2.0 μg of GST fusion proteins containing full-length hFAST-1 (FAST-FL) or only its forkhead domain (FAST-FH). GST fusion proteins containing the MH1 or MH2 domains of Smad2 (S-N and S-C, respectively; Zawel et al., 1998) were used as controls. The FBE* oligonucleotide contained the sequence TCTGTATC in place of the consensus TGTGTATT but was otherwise identical to FBE. […] EMSA was performed with (+) or without (−) 1 μg of GST fusion protein containing full length FAST-1 (“FAST-FL”). The sequence of the 50 bp ARE oligonucleotide differed by only one bp from ARE*.
(§2) Sixty bp probes corresponding to single clones were generated for EMSA by colony PCR using the following ³²P-labeled primers: 5′-[…]-3′ (SEQ ID NO:14) and 5′-[…]-3′ (SEQ ID NO:15). […]

Smad2 MH2 domain (S-C) = Smad2 MH2 domain (S-C) (Homo sapiens, UniProt Q15796 SEQ:193-477); assay: EMSA; specificity control; conditions: tags: GST fusion; label: 32P
Chain of Smad2 MH2 domain (S-C) (Q15796 183-467): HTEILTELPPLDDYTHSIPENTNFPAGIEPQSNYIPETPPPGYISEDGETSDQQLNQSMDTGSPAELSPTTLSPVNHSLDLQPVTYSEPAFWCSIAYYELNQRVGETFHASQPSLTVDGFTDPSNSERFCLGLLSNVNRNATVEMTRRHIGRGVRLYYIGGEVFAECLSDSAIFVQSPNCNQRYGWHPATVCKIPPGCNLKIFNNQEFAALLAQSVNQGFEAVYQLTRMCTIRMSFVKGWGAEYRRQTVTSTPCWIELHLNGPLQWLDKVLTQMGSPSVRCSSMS
Procedure: as §1, §2

[1] = biological target: T2, hFAST-1 full length (FAST-FL) (Homo sapiens, UniProt O75593 SEQ:1-365); assay: EMSA; about 0.4 uM protein, 0.5 ng DNA; conditions: tags: GST N-terminal fusion (pGEX2TK); label: 32P
T2 sequence: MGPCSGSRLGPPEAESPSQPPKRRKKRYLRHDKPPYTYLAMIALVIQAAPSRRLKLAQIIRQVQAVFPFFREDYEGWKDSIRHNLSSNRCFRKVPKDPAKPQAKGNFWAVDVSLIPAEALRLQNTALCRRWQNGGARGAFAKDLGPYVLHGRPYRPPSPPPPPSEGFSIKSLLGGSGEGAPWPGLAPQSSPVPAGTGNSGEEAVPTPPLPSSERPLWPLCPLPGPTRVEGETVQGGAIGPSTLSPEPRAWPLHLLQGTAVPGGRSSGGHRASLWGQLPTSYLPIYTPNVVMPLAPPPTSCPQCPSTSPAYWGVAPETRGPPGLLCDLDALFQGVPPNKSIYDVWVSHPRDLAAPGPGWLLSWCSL
Procedure: as §1, §2

[2] = biological target: T2, hFAST-1 full length (FAST-FL); assay: EMSA; two consensus positions altered; conditions: tags: GST N-terminal fusion (pGEX2TK); label: 32P
Procedure: as §1, §2

[3] = biological target: T2, hFAST-1 full length (FAST-FL); assay: EMSA; 1 ug GST fusion; conditions: tags: GST N-terminal fusion (pGEX2TK); label: 32P
Procedure: as §1, §2

[4] = biological target: T2, hFAST-1 full length (FAST-FL); assay: EMSA; single base substitution in FBE; conditions: tags: GST N-terminal fusion (pGEX2TK); label: 32P
Procedure: as §1, §2

AR3-lux reporter (three copies of Mix.2 ARE)
activity (hFAST-1 (Homo sapiens)): > 30 fold

B1: FBE (dsDNA)
DNA 1: CGGATTGTGTATTGGCTGTAC
DNA 2: GTACAGCCAATACACAATCCG
binding result (Smad2 MH1 domain (S-N)): no binding
binding result (Smad2 MH2 domain (S-C)): no binding
binding result [1]: binds

B2: FBE* (dsDNA)
DNA 1: CGGATTCTGTATCGGCTGTAC
DNA 2: GTACAGCCGATACAGAATCCG
binding result [2]: no binding

B3: ARE (Mix.2) (dsDNA)
DNA 1: TATCTGCTGCCCTAAAATGTGTATTCCATGGAAATGTCTGCCCTTCTCTCCGTAC
DNA 2: GTACGGAGAGAAGGGCAGACATTTCCATGGAATACACATTTTAGGGCAGCAGATA
binding result [3]: binds

B4: ARE mutant (dsDNA)
DNA 1: TATCTGCTGCCCTAAAATCTGTATTCCATGGAAATGTCTGCCCTTCTCTCCGTAC
DNA 2: GTACGGAGAGAAGGGCAGACATTTCCATGGAATACAGATTTTAGGGCAGCAGATA
binding result [4]: no binding
